Source: the DeepSol protein solubility set

Test: soluble on expression in E. coli; label from the status in PepcDB or PDB records

For “MSTHEKLLTADNPVLHQRAKAMRQEMSEAEAKLWQHLRAGRLNGYKFRRQQPMGNYIVDFMCVTPKLIVEADGGQHAEQAVYDHARTAYLNSLGFTVLRFWNHEILQQTNDVLAEILRVLQELEKQYAQ”, which “soluble on expression in E. coli” value is on record?
Its value is “not soluble”.

For “GSHMEVNLRMSWWGGNGRHQVTLKALEEFHKQHPNINVKAEYTGWDGHLSRLTTQIAGGTEPDVMQTNWNWLPIFSKDGTGFYNLFSVKEQLDLAQFDPKELQQTTVNGKLNGIPISVTARIFYFNDATWAKAGLEYPKTWDELLAAGKVFKEKLGDQYYPVVLEHQDTLALIRSYMTQKYNIPTIDEANKKFAYSPEQWVEFFTMYKTMVDNHVMPSTKYYASFGKSNMYEMKPWINGEWAGTYMWNSTITKYSDNLTKPAKLVLGPYPMLPGAKDAGLFFKPAQMLSIGKSTKHPQESAMLINFLLNSKEGVEALGLERGVPLSATAVTQLRASGVIKDEDPSVAGLNMALELPHKMTTSPYFDDPQIVSLFGDAIQYIDYGQKTVQETAEYFNKQGDRILKRAMR”, which “soluble on expression in E. coli” value is on record?
Its value is “soluble”.

Which “soluble on expression in E. coli” value does the source give for “MRKIQVGVTGMTCAACSNSVEAALMNVNGVFKASVALLQNRADVVFDPNLVKEEDIKEEIEDAGFEAEILAEEW” here?
The value was “soluble”.

With “MSLDLEDKQQKLEQAILGALDEVQVLNEDRILRRYLDLIKATLRTNFYQPDGNGQNKSYFSFKFNPKAIPELPRPVPKYEIFVYSPRVEGVHLRGGKVARGGLRWSDREEDFRTEVLGLVKAQQVKNAVIVPVGAKGGFVPRRLPLGGSRDEIQAEAIACYRIFISGLLDITDNLKEGEVVPPANVVRHDEDDPYLVVAADKGTATFSDIANGIAAEYGFWLGDAFASGGSAGYDHKGMGITAKGAWVSVQRHFRERGIDVQKDNISVIGIGDMAGDVFGNGLLMSDKLQLVAAFNHMHIFIDPNPDAASSFVERQRLFNLPRSSWADYDAKLISAGGGIFLRSAKSIAITPEMKARFDIQADRLAPTELIHALLKAPVDLLWNGGIGTYVKSSKETHADVGDKANDGLRVDGRELRAKVVGEGGNLGMTQLARVEFGLHGGANNTDFIDNAGGVDCSDHEVNIKILLNEVVQAGDMTEKQRNALLVKMTDAVGALVLGNNYKQTQALSLAQRRARERIAEYKRLMGDLEARGKLDRALEFLPSDEELAERISAGEGHHHHHH” as the sequence, how does the “soluble on expression in E. coli” value read?
The value was “not soluble”.

For “MGSDKIHHHHHHMLKLCGFAASNYYNKVKLALLEKNVPFEEVLAWIGETDTTATPAGKVPYMITESGSLCESEVINEYLEAAYPQTPLLPRDPMQAGKVREIVTFLELYLELTARELYPEAFFGGKVSDNVKERQLKLLSRYVPAFAKLAKFSPYVAGDTFTLADCAAAVHLPLVSSCTKIIYGKDLLADLPVKEYLKTLSERPSVQKVNADRKANTELMLSRNK”, which “soluble on expression in E. coli” value is on record?
Its value is “not soluble”.

With “MSLSHSAEDSRRRELGAFLRSRRERLTPSATGISTGLRRRTPGLRREEVAMIAGVGTTWYTWLEQGRDVRPSVEVLTALSGALRLDAAEKRHLFTLAGRQLPERRRIAAGKVEGPLLHMLQSLVLQPAYVVGPRWDVLAWNDAAVAIFGDYGQLEGDARNIIHGVFTDPHRRHLLADWEQVARATLAAFRAESARYVGDPDFERLIALMMRSSPEFREWWPQRDVVHRLSGMKHLRHPTAGAMVFEHMSLSIDDGSDMKLIVYTPLAEQNSIAKLQSLLDAILRKEDRLKGIITITTDPNSSSVDKLAAALEHHHHHH” as the sequence, how does the “soluble on expression in E. coli” value read?
Its value is “soluble”.

Which “soluble on expression in E. coli” value does the source give for “QGEIRVGPSHQAKLPDLQPFPSPDGDTVTQHEELVWMPGVNDCDLLMYLRAARSMAAFAGMCDGGSTEDGCVAASRDDTTLNALNTLHESGYDAGKALQRLVKKPVPKLIEKCWTEDEVKRFVKGLRQYGKNFFRIRKELLPNKETGELITFYYYWKKT” here?
The value was “not soluble”.

Which “soluble on expression in E. coli” value does the source give for “MGSDKIHHHHHHMKTKETPEQKPEDMPIPIVDITSVEQQTVSLNLPSYGVVTPKYKTQLVTEVQGRMLTISPQFVAGGIVKKGDQLAQIEPSDYEADLMQAEATLAQATAALNEEIARGEVAKIEFKGYDKGLPPELGLRIPQLKKEQANVKYAQAALARAQRNLERTIIRAPFDGIIKARNVDLGQYVTLGTNLGELYDTSIAEIRLPISNDDLAYLESVDNPDTQVTLSASLAGKENTWIGNIIRSEGVIDADNRMVYLVAEIKDPYLREHKTQGSLPLKYGSFVNAVIKGRTVDGIVKLPRHVVRNEHVALINDNNIVEMRHVNVVRSDLQNVFIKDSLKTGERVAITHFNNMANGQLVKVIGEETKPAQTPAPESSLAATGVK” here?
The value was “not soluble”.

Which “soluble on expression in E. coli” value does the source give for “MDPSVTLWQFLLQLLREQGNGHIISWTSRDGGEFKLVDAEEVARLWGLRKNKTNMNYDKLSRALRYYYDKNIIRKVSGQKFVYKFVSYPEVAGC” here?
The value was “soluble”.

Which “soluble on expression in E. coli” value does the source give for “MGSDKIHHHHHHMAEFPASLLILNGKSTDNLPLREAIMLLREEGMTIHVRVTWEKGDAARYVEEARKFGVATVIAGGGDGTINEVSTALIQCEGDDIPALGILPLGTANDFATSVGIPEALDKALKLAIAGDAIAIDMAQVNKQTCFINMATGGFGTRITTETPEKLKAALGSVSYIIHGLMRMDTLQPDRCEIRGENFHWQGDALVIGIGNGRQAGGGQQLCPNALINDGLLQLRIFTGDEILPALVSTLKSDEDNPNIIEGASSWFDIQAPHDITFNLDGEPLSGQNFHIEILPAALRCRLPPDCPLLR” here?
The value was “not soluble”.

Which “soluble on expression in E. coli” value does the source give for “LLVDKKVSVNDVDIGLISLQYLNIIANYTNKKAIEKITDYLVITSKILAKKADNLLNDHQEESVLEYDLATNNFRDKMIANLVEHKRYCDSLGEFEKLRVNRLAYFSKANEMEQFIKTANDQLVTVEDQLPNYISVLKLFHAMNKLLEMRLSSLLTNKNITIKELSVEQVQKELVLAIKQFNYQTVSLKRVLLKLN” here?
The value was “not soluble”.

With “GLGRKPHTRILSFEKLEADKFICQHLNLSLGEAVFKLSRLRIADNEPLMVEDTYLPVKFFLSLTDQLLRSKPLYDLFSEDFKQTVRLADEELYASIASKEDAKLLMIPEGAPVLHLARQTYNMKNEIIEFTLSVARADQFHYQIRHIRNS” as the sequence, how does the “soluble on expression in E. coli” value read?
The value was “soluble”.

With “MGSDKIHHHHHHTYTPGTMGEGVVYYLPKTEIELQVTATKVVYTPGEFCQYADRYLRLTGISSQPEEHWEINSIKVNSIGIPDPDNAYAVKLKDKSAASQVELTPEGIIKAINTTSPIEKAPVTKVADTVKKRIDPRSFMTEEILIAGSTAKMAELVAKEIYNIRESKNSLTRGQADYMPKDGAALKLMLDNLDEQEQAMMQMFAGTTDRIEKSFTIRIKPEADMKEKVAFRFSKKLGMLDADNLSGEPYYISIVNQETLPPMDPKGKEKKKTDGVIYNIPGKAQVTVFTPNKRYFDGELPVTQFGTTECLIDNLFNKKVNTRVIFNPNTGGIVKIDKD” as the sequence, how does the “soluble on expression in E. coli” value read?
The value was “not soluble”.

For “MLRVLVRTGSEACRAVSTSTAVLSVHPVVKSEDLSAKEIWDRRSKLRVPKLQKDEQLSSKVYFAPEWDLEKKPNLDEGFVNPLKGYGMTPEKWEYYNKVVWPPNYIVPETGLPKPKEVFHCKESVHFSPKRMWAACQLVWKMNVDEAITQLDMQQLKACNLLMDTIKKAKSRAADEFHIEYPSQMYVADAFPVQSNIVKGARRHAHDNWNTIRYRYIHIFVRLEEGPAPQQKQRHPQKNGWDHMDEYYNYLRSRTVKYSI”, which “soluble on expression in E. coli” value is on record?
The value was “not soluble”.

For “MSLKKTEKAYEVKRAFNNNIVLVDDDEKEIILFAKGIGFNCKKGSIIPENTNIEKIFTIQDENNIANFRRVVGSNDEKFIAFCEELILEISRDFSEELNEIIHIGLIDHISFAIERMKKGEILRNPFLVEIETLYPKEFEAATKMVKKLEDFTGVSIVDDEIGFIAMHIHSARTTGKISHTIKFTYIANTAVEYIEDAFNIEVDRTSLSYARFISHLRFAIERLINNTPVKNELLSIIKLKYPESFKVAEEIGKAINEDFSLEVAEDEIGYLALHVERIRKNEGHHHHHH”, which “soluble on expression in E. coli” value is on record?
The value was “soluble”.

With “MMAFAPPKNTDGPKMQTKMSTWTPLNHQLLNDRVFEERRALLGKWFDKWTDSQRRRILTGLLERCSLSQQKFCCRKLQEKIPAEALDFTTKLPRVLSLYIFSFLDPRSLCRCAQVCWHWKNLAELDQLWMLKCLRFNWYINFSPTPFEQGIWKKHYIQMVKELHITKPKTPPKDGFVIADVQLVTSNSPEEKQSPLSAFRSSSSLRKKNNSGEKALPPWRSSDKHPTDIIRFNYLDNRDPMETVQQGRRKRNQMTPDFSRQSHDKKNKLQDRTRLRKAQSMMSRRNPFPLCP” as the sequence, how does the “soluble on expression in E. coli” value read?
Its value is “not soluble”.

For “AVVNTDDYVTRTSIFYHAGSSRLLTVGDPYFRVPAGGGNKQDIPKVSAYQYRVFRVQLPDPNKFGLPDTSIYNPETQRLVWACAGVEIGRGQPLGVGLSGHPFYNKLDDTESSHAATSNVSEDVRDNVSVDYKQTQLCILGCAPAIGEHWAKGTASKSRPLSQGDCPPLELKNTVLEDGDMVDTGYGAMDFSTLQDTKCEVPLDICQSICKYPDYLQMSADPYGDSMFFCLRREQLFARHFWNRAGTMGDTVPQSLYIKGTGMRASPGSCVYSPSPSGSIVTSDSQLFNKPYWLHKAQGHNNGVCWHNQLFVTVVDTTRSTNLTICASTQSPVPGQYDATKFKQYSRHVEEYDLQFIFQLCTITLTADVMSYIQSMNSSILEDWNGGSGGNKDPYDKLKFWNVDLKEKFSLDLDQYPLGRKFLVQAGL”, which “soluble on expression in E. coli” value is on record?
Its value is “soluble”.

Which “soluble on expression in E. coli” value does the source give for “MGSDKIHHHHHHMGKPHRIALALQGGGVHGAFTWGVLDALLEEAATGKIEFVGVSGASSGALTATAMAYGYHEGAAQPGPASARSRRMAEAARTKIRELWETVARAAFWGGNPFVAAIGLAQDWNIDDTPAARWADVAGGNTPAAESGLGTYLTAVLRDVLPQIPAIFALPQEGTPTLIVAATDIGECRRQLFIDGAVSPDAVRASTNLPTSLHTVSIGDHHYWDGGYMGNPPLTPLVERLRETNAEDLVLVTLNPLHRDGPPPKGGRQVLDRLNEVAFNASLVHEVNAIETINRLVDADMIKEPPPGQHPYRRVNLHRIHADEEMVKLGVYSKDAPAWDFLVYLRDLGRKAFTESWETIRPALGKHSSWDTNSVCDQILARKAITTREK” here?
Its value is “not soluble”.

For “MTNKREDVRNIAIIAHVDHGKTTLVDELLKQSGIFRENEHVDERAMDSNDIERERGITILAKNTAVDYKGTRINILDTPGHADFGGEVERIMKMVDGVVLVVDAYEGTMPQTRFVLKKALEQNLKPVVVVNKIDKPSARPEGVVDEVLDLFIELEANDEQLEFPVVYASAVNGTASLDPEKQDDNLQSLYETIIDYVPAPIDNSDEPLQFQVALLDYNDYVGRIGIGRVFRGKMRVGDNVSLIKLDGTVKNFRVTKIFGYFGLKRLEIEEAQAGDLIAVSGMEDINVGETVTPHDHQEALPVLRIDEPTLEMTFKVNNSPFAGREGDFVTARQIQERLNQQLETDVSLKVSNTDSPDTWVVAGRGELHLSILIENMRREGYELQVSKPQVIIKEIDGVMCEPFERVQCEVPQENAGAVIESLGARKGEMVDMTTTDNGLTRLIFNVPARGMIGYTTEFMSMTRGYGIINHTFEEFRPRIKAQIGGRRNGALISMDQGSASTYAILGLEDRGVNFMEPGTEVYEGMIVGEHNRENDLTVNITKTKHQTNVRSATKDQTQTMNRPRILTLEEALQFINDDELVVVTPESIRLRKKILNKNVREKEAKRIKQMMQENE”, which “soluble on expression in E. coli” value is on record?
Its value is “not soluble”.

For “MGSDKIHHHHHHMEDKLISRYDILVNRYKELVSEKLSRKDFIEYNEILFSAHSCAIEGNSFSVDETRTLKEKGLGMIPKGKTLLEAFEILDHFQAYEYLLKNLDRPLTEELLKETHRLLTEHTLSYKTQYDEIPSNPGEYTTVDMCAGDTIFGDHEQLIKQVPRLLQSTQQVLDSGKIHPMIIAARFHGFYEYLHPFRDGNGRLGRLMSNFILLKKEQPLLIIPGSQREEYITALKYIKKERTDEFLIDFFFRTSIKRMEQEIEEKKNLTENFIRGMEFVRNVKSSNDDISEI”, which “soluble on expression in E. coli” value is on record?
The value was “not soluble”.

With “ERVDEKVFSAGTSIFRGILEKVKAPLMYGDREVWGMARASEDFFFILPVTDDLTPVLFYNRLTNEPCFVSDQGITEYFKFAQEGDYIEVEGSSVFMANLLYYRFFPTRITSYNAPIEGVVSKTGNPAFTIPMLPGVSDCIEISNNRKVFLTNQLGVVNITDGMEPPIIAGVSASYGSSVRVYGHVSQRWDIIGHCYLDIYPTNCYPLSTKPVAGDDEVFVKQQGRQIEIDSNSPIVQVVVYDLEGKSVFRKRMTENA” as the sequence, how does the “soluble on expression in E. coli” value read?
The value was “not soluble”.
